# From the supplement of paper PMC5998384
# Key:
# [1] = system: HeLa Kyoto; assay: solubility change mitosis vs G1/S (difference of NP-40 vs SDS log2 ratios) (log2 ratio difference); higher = more soluble in mitosis
# [2] = system: HeLa Kyoto; assay: thermal stability score vs G1/S (z-score of summed log2 fold changes over temperatures); higher = more thermally stable than in G1/S
# [3] = system: HeLa Kyoto; assay: solubility in G1/S (NP-40 vs SDS abundance) (log2 ratio); higher = more soluble; conditions: cell cycle stage: G1/S
# [4] = system: HeLa Kyoto; assay: melting temperature (median over replicates), in situ; higher = more thermally stable
# [5] = cell cycle stage: early G1 (4.5 h after nocodazole release)
# 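For melting temperature (median over replicates), in situ in this document: HeLa Kyoto cells synchronized by double thymidine or nocodazole block, proteins quantified by TMT10plex mass spectrometry, three independent biological replicates.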
# 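For solubility change mitosis vs G1/S (difference of NP-40 vs SDS log2 ratios) in this document: synchronized HeLa Kyoto cells (double thymidine block for G1/S, nocodazole release for mitosis), protein amounts in NP-40 versus SDS lysates quantified by mass spectrometry, three biological replicates.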
# 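For solubility in G1/S (NP-40 vs SDS abundance) in this document: HeLa Kyoto cells arrested at G1/S by double thymidine block, proteins quantified by TMT10plex mass spectrometry in mild NP-40 versus SDS extracts, three biological replicates.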
# 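For thermal stability score vs G1/S (z-score of summed log2 fold changes over temperatures) in this document: synchronized HeLa Kyoto cells, proteins quantified by TMT10plex mass spectrometry, three biological replicates, mitosis taken 0.5 h after nocodazole release, G1/S directly after double thymidine block.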
# Chain of HSPA9 (chain, as listed by the source): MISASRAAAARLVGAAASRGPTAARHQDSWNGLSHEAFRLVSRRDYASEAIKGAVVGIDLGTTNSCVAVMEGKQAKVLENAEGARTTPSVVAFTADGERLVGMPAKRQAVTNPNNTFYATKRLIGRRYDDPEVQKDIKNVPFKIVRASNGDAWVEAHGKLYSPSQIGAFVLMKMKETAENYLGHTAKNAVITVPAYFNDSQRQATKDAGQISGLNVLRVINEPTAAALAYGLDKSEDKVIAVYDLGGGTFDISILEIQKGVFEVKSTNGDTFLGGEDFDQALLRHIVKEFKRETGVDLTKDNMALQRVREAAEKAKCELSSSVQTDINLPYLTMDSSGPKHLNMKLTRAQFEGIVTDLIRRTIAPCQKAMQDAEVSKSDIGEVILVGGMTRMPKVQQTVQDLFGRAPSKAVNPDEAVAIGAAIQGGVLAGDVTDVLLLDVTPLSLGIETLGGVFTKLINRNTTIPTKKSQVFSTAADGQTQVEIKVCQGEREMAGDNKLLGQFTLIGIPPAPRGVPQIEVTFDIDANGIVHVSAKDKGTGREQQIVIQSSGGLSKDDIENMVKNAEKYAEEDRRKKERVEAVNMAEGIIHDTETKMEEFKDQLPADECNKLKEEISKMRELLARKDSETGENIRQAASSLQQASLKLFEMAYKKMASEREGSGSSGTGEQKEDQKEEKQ
Substance,solubility change mitosis (log2) [1],"thermal stability score [2, 5]",thermal stability score ([2]; cell cycle stage: mitosis),solubility in G1/S (log2) [3],melting temperature ([4]; cell cycle stage: G1/S),melting temperature ([4]; cell cycle stage: mitosis)
MAAAPPLRDRLSFLHRLPILLKGTSDDDVPCPGYLFEEIAKISHESPGSSQCLLEYLLSRLHSSSGHGKLKVLKILLYLCSHGSSFFLLILKRNSAFIQEAAAFAGPPDPLHGNSLYQKVRAAAQDLGSTLFSDTVLPLAPSQPLGTPPATGMGSQARPHSTLQGFGYSKEHGRTAVRHQPGQAGGGWDELDSGPSSQNSSQNSDLSRVSDSGSHSGSDSHSGASREPGDLAERVEVVALSDCQQELSLVRTVTRGPRAFLSREEAQHFIKACGLLNCEAVLQLLTCHLRGTSECTQLRALCAIASLGSSDLLPQEHILLRTRPWLQELSMGSPGPVTNKATKILRHFEASCGQLSPARGTSAEPGPTAALPGPSDLLTDAVPLPGSQVFLQPLSSTPVSSRSPAPSSGMPSSPVPTPPPDASPIPAPGDPSEAEARLAESRRWRPERIPGGTDSPKRGPSSCAWSRDSLFAGMELVACPRLVGAGAAAGESCPDAPRAPQTSSQRTAAKEPPGSEPSAFAFLNA [ENTHD2],0.0532,-0.323,-0.0735,0.305,53.4 °C,50.6 °C
KIDINS220,0.00102,-0.795,-1.61,-0.21,52.9 °C,52 °C
MAYPGHPGAGGGYYPGGYGGAPGGPAFPGQTQDPLYGYFAAVAGQDGQIDADELQRCLTQSGIAGGYKPFNLETCRLMVSMLDRDMSGTMGFNEFKELWAVLNGWRQHFISFDTDRSGTVDPQELQKALTTMGFRLSPQAVNSIAKRYSTNGKITFDDYIACCVKLRALTDSFRRRDTAQQGVVNFPYDDFIQCVMSV [SRI],0.318,-2.31,-2.35,0.028,52.8 °C,52.2 °C
HSPA9,-0.0046,2.31,-0.387,0.447,53.1 °C,52.8 °C
MQPWHGKAMQRASEAGATAPKASARNARGAPMDPTESPAAPEAALPKAGKFGPARKSGSRQKKSAPDTQERPPVRATGARAKKAPQRAQDTQPSDATSAPGAEGLEPPAAREPALSRAGSCRQRGARCSTKPRPPPGPWDVPSPGLPVSAPILVRRDAAPGASKLRAVLEKLKLSRDDISTAAGMVKGVVDHLLLRLKCDSAFRGVGLLNTGSYYEHVKISAPNEFDVMFKLEVPRIQLEEYSNTRAYYFVKFKRNPKENPLSQFLEGEILSASKMLSKFRKIIKEEINDIKDTDVIMKRKRGGSPAVTLLISEKISVDITLALESKSSWPASTQEGLRIQNWLSAKVRKQLRLKPFYLVPKHAKEGNGFQEETWRLSFSHIEKEILNNHGKSKTCCENKEEKCCRKDCLKLMKYLLEQLKERFKDKKHLDKFSSYHVKTAFFHVCTQNPQDSQWDRKDLGLCFDNCVTYFLQCLRTEKLENYFIPEFNLFSSNLIDKRSKEFLTKQIEYERNNEFPVFDEF [MB21D1],-0.155,-0.379,1.19,-1.72,52.6 °C,53.9 °C
MWSPEREAEAPAGGDPAGLLPPEWEEDEERMSFLFSAFKRSREVNSTDWDSKMGFWAPLVLSHSRRQGVVRLRLRDLQEAFQRKGSVPLGLATVLQDLLRRGELQRESDFMASVDSSWISWGVGVFLLKPLKWTLSNMLGDNKVPAEEVLVAVELLKEKAEEVYRLYQNSPLSSHPVVALSELSTLCANSCPDERTFYLVLLQLQKEKRVTVLEQNGEKIVKFARGPRAKVSPVNDVDVGVYQLMQSEQLLSRKVESLSQEAERCKEEARRACRAGKKQLALRSLKAKQRTEKRIEALHAKLDTVQGILDRIYASQTDQMVFNAYQAGVGALKLSMKDVTVEKAESLVDQIQELCDTQDEVSQTLAGGVTNGLDFDSEELEKELDILLQDTTKEPLDLPDNPRNRHFTNSVPNPRISDAELEAELEKLSLSEGGLVPSSKSPKRQLEPTLKPL [CHMP7],-0.0049,0.579,1.08,0.221,49.2 °C,48.9 °C
MAGVACLGKAADADEWCDSGLGSLGPDAAAPGGPGLGAELGPGLSWAPLVFGYVTEDGDTALHLAVIHQHEPFLDFLLGFSAGTEYMDLQNDLGQTALHLAAILGETSTVEKLYAAGAGLCVAERRGHTALHLACRVGAHACARALLQPRPRRPREAPDTYLAQGPDRTPDTNHTPVALYPDSDLEKEEEESEEDWKLQLEAENYEGHTPLHVAVIHKDVEMVRLLRDAGADLDKPEPTCGRSPLHLAVEAQAADVLELLLRAGANPAARMYGGRTPLGSAMLRPNPILARLLRAHGAPEPEGEDEKSGPCSSSSDSDSGDEGDEYDDIVVHSSRSQTRLPPTPASKPLPDDPRPV [NFKBIB],-0.224,0.217,0.0879,0.533,49.3 °C,50 °C
MADGEEPEKKRRRIEELLAEKMAVDGGCGDTGDWEGRWNHVKKFLERSGPFTHPDFEPSTESLQFLLDTCKVLVIGAGGLGCELLKNLALSGFRQIHVIDMDTIDVSNLNRQFLFRPKDIGRPKAEVAAEFLNDRVPNCNVVPHFNKIQDFNDTFYRQFHIIVCGLDSIIARRWINGMLISLLNYEDGVLDPSSIVPLIDGGTEGFKGNARVILPGMTACIECTLELYPPQVNFPMCTIASMPRLPEHCIEYVRMLQWPKEQPFGEGVPLDGDDPEHIQWIFQKSLERASQYNIRGVTYRLTQGVVKRIIPAVASTNAVIAAVCATEVFKIATSAYIPLNNYLVFNDVDGLYTYTFEAERKENCPACSQLPQNIQFSPSAKLQEVLDYLTNSASLQMKSPAITATLEGKNRTLYLQSVTSIEERTRPNLSKTLKELGLVDGQELAVADVTTPQTVLFKLHFTS [UBA3],-0.178,1.23,1.76,0.115,51.8 °C,51.5 °C
MANPKEKTAMCLVNELARFNRVQPQYKLLNERGPAHSKMFSVQLSLGEQTWESEGSSIKKAQQAVANKALTESTLPKPVQKPPKSNVNNNPGSITPTVELNGLAMKRGEPAIYRPLDPKPFPNYRANYNFRGMYNQRYHCPVPKIFYVQLTVGNNEFFGEGKTRQAARHNAAMKALQALQNEPIPERSPQNGESGKDVDDDKDANKSEISLVFEIALKRNMPVSFEVIKESGPPHMKSFVTRVSVGEFSAEGEGNSKKLSKKRAATTVLQELKKLPPLPVVEKPKLFFKKRPKTIVKAGPEYGQGMNPISRLAQIQQAKKEKEPDYVLLSERGMPRRREFVMQVKVGNEVATGTGPNKKIAKKNAAEAMLLQLGYKASTNLQDQLEKTGENKGWSGPKPGFPEPTNNTPKGILHLSPDVYQEMEASRHKVISGTTLGYLSPKDMNQPSSSFFSISPTSNSSATIARELLMNGTSSTAEAIGLKGSSPTPPCSPVQPSKQLEYLARIQGFQAALSALKQFSEQGLDPIDGAMNIEKGSLEKQAKHLREKADNNQAPPGSIAQDCKKSNSAV [STAU2],0.169,0.426,1.69,-0.227,49.1 °C,50.3 °C
MAPSGSLAVPLAVLVLLLWGAPWTHGRRSNVRVITDENWRELLEGDWMIEFYAPWCPACQNLQPEWESFAEWGEDLEVNIAKVDVTEQPGLSGRFIITALPTIYHCKDGEFRRYQGPRTKKDFINFISDKEWKSIEPVSSWFGPGSVLMSSMSALFQLSMWIRTCHNYFIEDLGLPVWGSYTVFALATLFSGLLLGLCMIFVADCLCPSKRRRPQPYPYPSKKLLSESAQPLKKVEEEQEADEEDVSEEEAESKEGTNKDFPQNAIRQRSLGPSLATDKS [TMX1],-0.034,0.556,1.24,-0.0895,54.7 °C,55.9 °C
MFGRSRSWVGGGHGKTSRNIHSLDHLKYLYHVLTKNTTVTEQNRNLLVETIRSITEILIWGDQNDSSVFDFFLEKNMFVFFLNILRQKSGRYVCVQLLQTLNILFENISHETSLYYLLSNNYVNSIIVHKFDFSDEEIMAYYISFLKTLSLKLNNHTVHFFYNEHTNDFALYTEAIKFFNHPESMVRIAVRTITLNVYKVSLDNQAMLHYIRDKTAVPYFSNLVWFIGSHVIELDDCVQTDEEHRNRGKLSDLVAEHLDHLHYLNDILIINCEFLNDVLTDHLLNRLFLPLYVYSLENQDKGGERPKISLPVSLYLLSQVFLIIHHAPLVNSLAEVILNGDLSEMYAKTEQDIQRSSAKPSIRCFIKPTETLERSLEMNKHKGKRRVQKRPNYKNVGEEEDEEKGPTEDAQEDAEKAKGTEGGSKGIKTSGESEEIEMVIMERSKLSELAASTSVQEQNTTDEEKSAAATCSESTQWSRPFLDMVYHALDSPDDDYHALFVLCLLYAMSHNKGMDPEKLERIQLPVPNAAEKTTYNHPLAERLIRIMNNAAQPDGKIRLATLELSCLLLKQQVLMSAGCIMKDVHLACLEGAREESVHLVRHFYKGEDIFLDMFEDEYRSMTMKPMNVEYLMMDASILLPPTGTPLTGIDFVKRLPCGDVEKTRRAIRVFFMLRSLSLQLRGEPETQLPLTREEDLIKTDDVLDLNNSDLIACTVITKDGGMVQRFLAVDIYQMSLVEPDVSRLGWGVVKFAGLLQDMQVTGVEDDSRALNITIHKPASSPHSKPFPILQATFIFSDHIRCIIAKQRLAKGRIQARRMKMQRIAALLDLPIQPTTEVLGFGLGSSTSTQHLPFRFYDQGRRGSSDPTVQRSVFASVDKVPGFAVAQCINQHSSPSLSSQSPPSASGSPSGSGSTSHCDSGGTSSSSTPSTAQSPADAPMSPELPKPHLPDQLVIVNETEADSKPSKNVARSAAVETASLSPSLVPARQPTISLLCEDTADTLSVESLTLVPPVDPHSLRSLTGMPPLSTPAAACTEPVGEEAACAEPVGTAED [CLEC16A],-0.241,-1.42,-1.87,-0.224,55.7 °C,57.4 °C
MIPLLLAALLCVPAGALTCYGDSGQPVDWFVVYKLPALRGSGEAAQRGLQYKYLDESSGGWRDGRALINSPEGAVGRSLQPLYRSNTSQLAFLLYNDQPPQPSKAQDSSMRGHTKGVLLLDHDGGFWLVHSVPNFPPPASSAAYSWPHSACTYGQTLLCVSFPFAQFSKMGKQLTYTYPWVYNYQLEGIFAQEFPDLENVVKGHHVSQEPWNSSITLTSQAGAVFQSFAKFSKFGDDLYSGWLAAALGTNLQVQFWHKTVGILPSNCSDIWQVLNVNQIAFPGPAGPSFNSTEDHSKWCVSPKGPWTCVGDMNRNQGEEQRGGGTLCAQLPALWKAFQPLVKNYQPCNGMARKPSRAYKI [DNASE2],-0.0918,-1.39,-2.33,0.364,56.2 °C,56.1 °C
MAEKFDCHYCRDPLQGKKYVQKDGHHCCLKCFDKFCANTCVECRKPIGADSKEVHYKNRFWHDTCFRCAKCLHPLANETFVAKDNKILCNKCTTREDSPKCKGCFKAIVAGDQNVEYKGTVWHKDCFTCSNCKQVIGTGSFFPKGEDFYCVTCHETKFAKHCVKCNKAITSGGITYQDQPWHADCFVCVTCSKKLAGQRFTAVEDQYYCVDCYKNFVAKKCAGCKNPITGKRTVSRVSHPVSKARKPPVCHGKRLPLTLFPSANLRGRHPGGERTCPSWVVVLYRKNRSLAAPRGPGLVKAPVWWPMKDNPGTTTASTAKNAP [FHL1],-0.0498,0.0455,-3.17,-0.37,56.4 °C,58.5 °C
MRKFAYCKVVLATSLIWVLLDMFLLLYFSECNKCDEKKERGLPAGDVLEPVQKPHEGPGEMGKPVVIPKEDQEKMKEMFKINQFNLMASEMIALNRSLPDVRLEGCKTKVYPDNLPTTSVVIVFHNEAWSTLLRTVHSVINRSPRHMIEEIVLVDDASERDFLKRPLESYVKKLKVPVHVIRMEQRSGLIRARLKGAAVSKGQVITFLDAHCECTVGWLEPLLARIKHDRRTVVCPIIDVISDDTFEYMAGSDMTYGGFNWKLNFRWYPVPQREMDRRKGDRTLPVRTPTMAGGLFSIDRDYFQEIGTYDAGMDIWGGENLEISFRIWQCGGTLEIVTCSHVGHVFRKATPYTFPGGTGQIINKNNRRLAEVWMDEFKNFFYIISPGVTKVDYGDISSRVGLRHKLQCKPFSWYLENIYPDSQIPRHYFSLGEIRNVETNQCLDNMARKENEKVGIFNCHGMGGNQVFSYTANKEIRTDDLCLDVSKLNGPVTMLKCHHLKGNQLWEYDPVKLTLQHVNSNQCLDKATEEDSQVPSIRDCNGSRSQQWLLRNVTLPEIF [GALNT1],-0.0904,3.31,5,-0.204,53.1 °C,52 °C
